US20250289873A1 (BROADWING BIO, published 2025)

T1: human CFHL3-His (ATX-P-58) (human, UniProt Q02985 19-330)
T1 construct: also called human CFHR3 protein; CFHR3; not shown: C-terminal His tag (and linker)
T1 sequence (looked up): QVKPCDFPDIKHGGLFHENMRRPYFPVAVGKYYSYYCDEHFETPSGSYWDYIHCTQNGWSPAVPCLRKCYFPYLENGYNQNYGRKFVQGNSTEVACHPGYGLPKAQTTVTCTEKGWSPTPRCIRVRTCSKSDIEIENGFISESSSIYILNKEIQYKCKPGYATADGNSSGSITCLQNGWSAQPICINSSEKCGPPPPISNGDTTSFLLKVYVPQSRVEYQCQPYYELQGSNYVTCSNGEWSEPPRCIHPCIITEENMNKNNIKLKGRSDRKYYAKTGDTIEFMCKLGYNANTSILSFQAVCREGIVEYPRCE

T2: Human CFHL1-Y402H-His (ATX-P-421) (human)
T2 construct: also called human CFHL-1 (Y402H) protein
T2 chain: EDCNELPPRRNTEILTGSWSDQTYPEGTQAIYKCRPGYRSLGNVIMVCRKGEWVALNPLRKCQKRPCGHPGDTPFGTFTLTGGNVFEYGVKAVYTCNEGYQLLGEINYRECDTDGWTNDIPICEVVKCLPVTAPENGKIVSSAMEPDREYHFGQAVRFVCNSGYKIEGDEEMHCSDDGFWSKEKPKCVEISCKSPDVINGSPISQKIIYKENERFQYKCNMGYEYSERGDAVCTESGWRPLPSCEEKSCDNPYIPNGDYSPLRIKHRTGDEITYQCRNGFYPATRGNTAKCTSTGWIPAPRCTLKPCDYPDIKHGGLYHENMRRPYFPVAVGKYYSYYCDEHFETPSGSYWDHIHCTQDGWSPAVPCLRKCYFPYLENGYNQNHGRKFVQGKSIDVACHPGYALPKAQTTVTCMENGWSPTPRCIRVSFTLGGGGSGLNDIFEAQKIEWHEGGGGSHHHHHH

B1: ATX-P-564 (antibody, human IgG1, kappa, N297A, V domains shown)
VH: EVQLVESGGGLVKPGGSLRLSCAASGFTFSSYTMNWVRQAPGKGLEWVSSISSSSSYTYYADSVRGRFTISRDNAKNSLYLQMSSLRAEDTAVYYCARSASIAAGMDVWGKGTTVTVSS
VL: DIVMTQSPLSLPVTPGEPASISCRSSQSLLHSTGYNFLDWYLQKPGLSPQLLIYLASNRASGVPDRFSGSGSGTDFTLKISRVEAEDVGVYYCMQALQTPYTFGQGTKLEIKR
B2: ATX-P-565 (antibody, human IgG1, kappa, N297A, V domains shown)
VH: QVQLVESGGGVVQPGRSLRLSCAASGFTFNTYGIHWVRQAPGKGLEWVAVIWHDGSSKNYVDSVTGRFTISRDNSKNTVYLQMNSLRAEDTAVYYCARRGNWNYGFYYYYMDVWGKGTTVTVSS
VL: DIVMTQSPLSLPVTPGEPASISCRSSQRLLHSSGYNYLDWYLQKPGQSPQLLIYLGSSRASGVPDRFSGSGSGTDFTLKISRVEAEDVGVYYCMQGLQTPPTFGQGTKVEIKR
B3: ATX-P-568 (antibody, human IgG1, kappa, N297A, V domains shown)
VH: EVQLVESGGGLVQPGGSLRLSCAASGFPFSSYVMSWVRQAPGKGLEWVSVISVSGGSTFYADSVRGRFTISRDNSKNTLYLQVYSLRAEDTAVYYCAKDGLAVAGFDHWGQGTLVTVSS
VL: DIQMTQSPSTLSASVGDRVTITCRASQSISTWLAWYQQKPGKAPKLLIHKASGLESGVPSRFSGSGSGTEFTLTISSLQPDDFATYYCQQYNSFSLIFGGGTRVEIKR
B4: ATX-P-562 (antibody, human IgG1, kappa, N297A, V domains shown)
VH: QVQLQQSGPGLVKSSQTLSLTCAISGDTVSSNSAAWNWIRQSPSRGLEWLGRTFYRSRWSAAYAASVSSRITINPDTSKNQFSLQLTSVTPADTAVYYCAREGVGSSTGFDYWGQGTLVTVSS
VL: DIQMTQSPSSVSASIGDRVTITCRASKGISIWLAWYQQKPGKAPKVLISAASSLQSGAPSRFSGSGSGTDFTLTISSLQPEDFATYYCQQANSFPPTFGQGTKVEIKR
B5: ATX-P-573 (antibody, human IgG1, kappa, N297A, V domains shown)
VH: QVQLQQSGPGLVKPSQTLSLTCAISGDSVSSNSAAWNWIRQSPSRGLEWLGRTYYRSKLYSDYAVSVKSRITINPDTSRNQFSLQLNSVTPEDTAVYYCAREGGYTYGYDYWGQGTLVTVSS
VL: DIQMTQSPSSVSASVGDRVTITCRASQGISSWLAWYQQKPGKAPKVLIYAASSLQSGVPSRFSGSGSGTDFTLTISSLQPEDFATYYCQQANSFPPTFGPGTKVDIKR
B6: ATX-P-574 (antibody, human IgG1, kappa, N297A, V domains shown)
VH: EVQLVESGGGLVQRGGSLRLSCVASGFTFSSYAMSWVRQAPGKGLEWVSVISGSGGTTYYADSVKGRFTISRDDSKKTLYLQMNSLRAEDTAVYYCAKRGDYGDYMDVWGKGTTVTVSS
VL: DIQMTQSPSSVSASVGDRVTITCRASQGITTWLAWYQQKPGKAPKLLIFGASSLESGVPSRFSGSGSGTDFTLTISSLQPEDFATYYCQQANSFPWTFGQGTKVEIKR
B7: ATX-P-566 (antibody, human IgG1, kappa, N297A, V domains shown)
VH: QVQLQQSGPGLVKPSQTLSLTCAISGDSVSSNSAAWNWIRQSPSRGLEWLGRTYYRSKWFNNYSVSVKSRIAINPDTSKNQFSLQLNSVTPEDTAVYYCARDLGELLDWYFDLWGRGTLVTVSA
VL: EIVLTQSPGTLSLSPGDRATLSCRASQSVRNSYVAWYQQKPGQAPRLLIYGASSRATGIPDRFSGSGSGTDFSLTIGRLEPEDFVVYYCQQYGNSPLTFGGGTKVEIKR
B8: ATX-P-563 (antibody, human IgG1, kappa, N297A, V domains shown)
VH: QVQLQESGPGLMKPSETLSLTCTVSGGSISSHYWSWIRQPPGKGLEWIGYIFYSGNINYNPSLKSRVTISVDTSKNQFSLKLRSVTTADTAVYYCARDRGGSYSYHFDCWGQGTLVTVSS
VL: DIQMTQSPSSVSASVGDRVTITCRASQSFAGWLAWYQQKPGKAPKLLIYAASTLQSGVPSRFSGSGSGTDFTLTISSLQPEDFATYYCQQANSFPLTFGGGTKVEIKR

How the values were obtained:
[1] = molecular target: T1, human CFHL3-His (ATX-P-58); assay: Carterra LSA biosensor, mAb printed on chip, human CFHL3-His at 550 nM
Procedure: (§1) Experiments were also conducted to determine the reactivity of the CFHR4 antibodies with the human CFHR3 protein (FIG. 9). The binding experiments were performed on Carterra LSA with a running buffer of PBS pH 7.40, 1% BSA, 0.05% Tween20. Antibodies were covalently printed on an HC30M chip. Chip was activated with 33 mM s-NHS and 133 mM EDC in 100 mM MES pH 5.5 for 7 minutes. Antibodies at 10 mg/ml in acetic acid buffer pH 4.5 were used for printing for 10 min. The printed chip was then quenched with 1 M ethanolamine pH 8.5 for 7 min. For the reactivity assay, ATX-P-58, human CFHL3-His, at 550 nM was tested with 5 min association followed by 15 min dissociation. Results were processed and analyzed in Carterra LSA Kinetics Software. The data was referenced with the interstitial reference spots and double-referenced to a buffer cycle, and then the responses (nm) after association were reported. Isotype control was used to determine the cutoff response for positive binding.

[2] = molecular target: T2, Human CFHL1-Y402H-His (ATX-P-421); assay: Carterra LSA biosensor, mAb printed on chip, human CFHL1-Y402H-His at 380 nM
Procedure: as §1, with “CFHL-1 (Y402H)” for “CFHR3”, “10).” for “9).”, “ATX-P-421,” for “ATX-P-58,”, “CFHL1-Y402H-His,” for “CFHL3-His,”, “380” for “550”

Row | Binder | binding result [1] | binding result [2]
1 | B1 | binds | binds
2 | B2 | binds | binds
3 | B3 | binds | binds
4 | B4 | binds | binds
5 | B5 | binds | binds
6 | B6 | binds | binds
7 | B7 | binds | binds
8 | B8 | binds | binds
